Experimental data as given in article PMC10786891, “Massively parallel profiling of RNA-targeting CRISPR-Cas13d”.
Residue numbers refer to the chain shown, from its start. Numbers in names are those of the source.

T1: EsCas13d, nuclease-dead (Eubacterium siraeum, UniProt B0MS50, R295A;H300A;R849A;H854A)
T1 sequence: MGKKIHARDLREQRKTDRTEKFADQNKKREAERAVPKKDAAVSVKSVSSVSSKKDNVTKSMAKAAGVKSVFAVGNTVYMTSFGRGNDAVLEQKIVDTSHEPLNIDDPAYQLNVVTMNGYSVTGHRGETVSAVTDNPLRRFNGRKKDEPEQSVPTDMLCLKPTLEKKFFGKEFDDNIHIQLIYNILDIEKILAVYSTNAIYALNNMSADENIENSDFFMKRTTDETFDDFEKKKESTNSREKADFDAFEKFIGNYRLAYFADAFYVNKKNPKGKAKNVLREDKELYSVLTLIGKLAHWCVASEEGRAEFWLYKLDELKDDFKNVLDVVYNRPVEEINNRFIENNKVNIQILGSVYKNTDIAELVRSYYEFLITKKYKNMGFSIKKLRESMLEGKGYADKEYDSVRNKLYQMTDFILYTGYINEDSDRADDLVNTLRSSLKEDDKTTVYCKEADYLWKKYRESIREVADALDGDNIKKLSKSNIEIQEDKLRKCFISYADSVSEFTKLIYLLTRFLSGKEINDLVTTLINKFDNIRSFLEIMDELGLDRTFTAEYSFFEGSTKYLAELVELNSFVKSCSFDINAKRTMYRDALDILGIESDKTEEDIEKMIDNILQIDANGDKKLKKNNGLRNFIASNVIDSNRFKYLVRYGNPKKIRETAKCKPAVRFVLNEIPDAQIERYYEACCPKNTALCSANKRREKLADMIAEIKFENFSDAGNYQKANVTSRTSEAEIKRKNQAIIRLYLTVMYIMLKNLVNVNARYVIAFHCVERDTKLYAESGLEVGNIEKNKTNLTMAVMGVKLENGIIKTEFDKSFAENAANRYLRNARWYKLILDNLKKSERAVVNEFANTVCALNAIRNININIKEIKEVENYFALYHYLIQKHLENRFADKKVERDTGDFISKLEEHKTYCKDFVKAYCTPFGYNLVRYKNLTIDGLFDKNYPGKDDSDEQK

B1: target 1 C2A,C4G (mixed)
RNA 1: CACCCGUGCAAAAAUGCAGGGGUCUAAAACUGAGCGGAUAACCUCUCUAUGG
RNA 2: GGGAAUGGAUCCACAUCUACGAAUUCGUACCAUAGAGAGGUUAUCCGGUAACCGAGAUCGGAAGAGCACACGU
B2: target 1 insG 3' of 4,insU 3' of 1 (mixed)
RNA 1: B1 RNA 1
RNA 2: GGGAAUGGAUCCACAUCUACGAAUUCGUACCAUAGAGAGGUUAUCCGCGUCAUCCGAGAUCGGAAGAGCACACGU
B3: target 1 insC 3' of 18,insA 3' of 10 (mixed)
RNA 1: B1 RNA 1
RNA 2: GGGAAUGGAUCCACAUCUACGAAUUCGUACCAUACGAGAGGUUAAUCCGCUCACCGAGAUCGGAAGAGCACACGU
B4: target 2 MT 5'PFS GAG 3'PFS UAA (mixed)
RNA 1: CACCCGUGCAAAAUUGCAGGGGUCUAAAACCUUCUCCAAAUUGUUUCAUCCU
RNA 2: GGGAAUGGAUCCACAUCUACGAAUUCGAGAGGAUGAAACAAUUUGGAGAAGUAAAGAUCGGAAGAGCACACGU
B5: target 2 MT 5'PFS GUU 3'PFS AGC (mixed)
RNA 1: B4 RNA 1
RNA 2: B4 RNA 2 with A28U, G29U, U52A, A53G, A54C
B6: target 2 MT 5'PFS AGC 3'PFS UAU (mixed)
RNA 1: B4 RNA 1
RNA 2: B4 RNA 2 with G27A, A28G, G29C, A54U
B7: target 2 MT 5'PFS GGG 3'PFS AAU (mixed)
RNA 1: B4 RNA 1
RNA 2: B4 RNA 2 with A28G, U52A, A54U
B8: target 2 MT 5'PFS GUU 3'PFS AGA (mixed)
RNA 1: B4 RNA 1
RNA 2: B4 RNA 2 with A28U, G29U, U52A, A53G
B9: target 2 MT 5'PFS GCU 3'PFS AUA (mixed)
RNA 1: B4 RNA 1
RNA 2: B4 RNA 2 with A28C, G29U, U52A, A53U
B10: target 2 MT 5'PFS AUA 3'PFS CUC (mixed)
RNA 1: B4 RNA 1
RNA 2: B4 RNA 2 with G27A, A28U, G29A, U52C, A53U, A54C
B11: target 2 MT 5'PFS AGC 3'PFS AGU (mixed)
RNA 1: B4 RNA 1
RNA 2: B4 RNA 2 with G27A, A28G, G29C, U52A, A53G, A54U
B12: target 2 MT 5'PFS GAG 3'PFS UUG (mixed)
RNA 1: B4 RNA 1
RNA 2: B4 RNA 2 with A53U, A54G
B13: target 2 MT 5'PFS GGG 3'PFS AAA (mixed)
RNA 1: B4 RNA 1
RNA 2: B4 RNA 2 with A28G, U52A
B14: target 2 MT 5'PFS CUC 3'PFS UAU (mixed)
RNA 1: B4 RNA 1
RNA 2: B4 RNA 2 with G27C, A28U, G29C, A54U
B15: target 2 MT 5'PFS GGG 3'PFS AAG (mixed)
RNA 1: B4 RNA 1
RNA 2: B4 RNA 2 with A28G, U52A, A54G
B16: target 2 MT 5'PFS AGC 3'PFS AGG (mixed)
RNA 1: B4 RNA 1
RNA 2: B4 RNA 2 with G27A, A28G, G29C, U52A, A53G, A54G
B17: target 2 MT 5'PFS CGG 3'PFS UAA (mixed)
RNA 1: B4 RNA 1
RNA 2: B4 RNA 2 with G27C, A28G
B18: target 2 MT 5'PFS CUC 3'PFS UAC (mixed)
RNA 1: B4 RNA 1
RNA 2: B4 RNA 2 with G27C, A28U, G29C, A54C
B19: target 2 MT 5'PFS AUA 3'PFS CUA (mixed)
RNA 1: B4 RNA 1
RNA 2: B4 RNA 2 with G27A, A28U, G29A, U52C, A53U
B20: target 2 MT 5'PFS GCU 3'PFS AUG (mixed)
RNA 1: B4 RNA 1
RNA 2: B4 RNA 2 with A28C, G29U, U52A, A53U, A54G
B21: target 2 MT 5'PFS UCA 3'PFS UCA (mixed)
RNA 1: B4 RNA 1
RNA 2: B4 RNA 2 with G27U, A28C, G29A, A53C
B22: target 2 MT 5'PFS AGC 3'PFS AGA (mixed)
RNA 1: B4 RNA 1
RNA 2: B4 RNA 2 with G27A, A28G, G29C, U52A, A53G
B23: target 2 MT 5'PFS CGG 3'PFS UAU (mixed)
RNA 1: B4 RNA 1
RNA 2: B4 RNA 2 with G27C, A28G, A54U
B24: target 2 MT 5'PFS GCU 3'PFS AUC (mixed)
RNA 1: B4 RNA 1
RNA 2: B4 RNA 2 with A28C, G29U, U52A, A53U, A54C
B25: target 2 MT 5'PFS GAG 3'PFS UUA (mixed)
RNA 1: B4 RNA 1
RNA 2: B4 RNA 2 with A53U
B26: target 2 MT 5'PFS GCU 3'PFS AUU (mixed)
RNA 1: B4 RNA 1
RNA 2: B4 RNA 2 with A28C, G29U, U52A, A53U, A54U
B27: target 2 MT 5'PFS GGG 3'PFS AAC (mixed)
RNA 1: B4 RNA 1
RNA 2: B4 RNA 2 with A28G, U52A, A54C
B28: target 2 MT 5'PFS AGA 3'PFS ACU (mixed)
RNA 1: B4 RNA 1
RNA 2: B4 RNA 2 with G27A, A28G, G29A, U52A, A53C, A54U
B29: target 2 MT 5'PFS AGC 3'PFS UAA (mixed)
RNA 1: B4 RNA 1
RNA 2: B4 RNA 2 with G27A, A28G, G29C
B30: target 2 MT 5'PFS CUC 3'PFS UAG (mixed)
RNA 1: B4 RNA 1
RNA 2: B4 RNA 2 with G27C, A28U, G29C, A54G
B31: target 2 MT 5'PFS AGC 3'PFS UAC (mixed)
RNA 1: B4 RNA 1
RNA 2: B4 RNA 2 with G27A, A28G, G29C, A54C
B32: target 2 MT 5'PFS AUA 3'PFS CUG (mixed)
RNA 1: B4 RNA 1
RNA 2: B4 RNA 2 with G27A, A28U, G29A, U52C, A53U, A54G
B33: target 2 MT 5'PFS AGC 3'PFS AGC (mixed)
RNA 1: B4 RNA 1
RNA 2: B4 RNA 2 with G27A, A28G, G29C, U52A, A53G, A54C
B34: target 2 MT 5'PFS CGG 3'PFS UAC (mixed)
RNA 1: B4 RNA 1
RNA 2: B4 RNA 2 with G27C, A28G, A54C
B35: target 2 MT 5'PFS CUC 3'PFS UAA (mixed)
RNA 1: B4 RNA 1
RNA 2: B4 RNA 2 with G27C, A28U, G29C
B36: target 2 MT 5'PFS GUU 3'PFS AGU (mixed)
RNA 1: B4 RNA 1
RNA 2: B4 RNA 2 with A28U, G29U, U52A, A53G, A54U
B37: target 2 MT 5'PFS GUU 3'PFS AGG (mixed)
RNA 1: B4 RNA 1
RNA 2: B4 RNA 2 with A28U, G29U, U52A, A53G, A54G
B38: target 2 MT 5'PFS AUG 3'PFS CGA (mixed)
RNA 1: B4 RNA 1
RNA 2: B4 RNA 2 with G27A, A28U, U52C, A53G

target: T1, EsCas13d, nuclease-dead; test: crRNA (strand 1, pre-loaded); Mg2+; 40 mM Tris-HCl pH 7.5, 150 mM NaCl, 6 mM MgCl2, 1 mM DTT, 0.1% Tween-20, 0.2 mg/ml BSA; 25 C; 10 min per concentration, then washed; details: tags: His6-TwinStrep-SUMO cleaved; N-terminal SNAP kept (SNAP-Surface 488); label: 3' end held by stalled T7 RNA polymerase

B1 and B2 are within 1.5-fold of each other in Kd: 12 ± 0.6 nM for the first, 9.1 ± 0.4 nM for the second.

Compared with B3, B4 is 10-fold lower in Kd: 52 ± 4 nM for the first, 5.1 ± 0.7 nM for the second.

B5 and B6 are within 1.5-fold of each other in Kd: 11.6 ± 1.2 nM for the first, 8.9 ± 1.3 nM for the second.

Going from B7 to B8, the Kd rises from 6.2 ± 0.6 nM to 10 ± 1.1 nM (1.6-fold). The first binds more tightly here.

B9 and B10 are within error of each other in Kd: 8.9 ± 1.1 nM for the first, 13 ± 4 nM for the second.

B11 and B12 are within error of each other in Kd: 10.2 ± 1.6 nM for the first, 8.5 ± 1 nM for the second.

First: B13
Second: B14
The Kd of the first is 3.4-fold higher: 6.7 ± 0.9 nM for the first, 1.99 ± 0.13 nM for the second. The second binds more tightly here.

B15 and B16 are within error of each other in Kd: 8.9 ± 1 nM for the first, 7.1 ± 1 nM for the second.

Going from B17 to B18, the Kd falls from 4.4 ± 0.7 nM to 2.32 ± 0.23 nM (1.9-fold).

Going from B19 to B20, the Kd rises from 6.1 ± 1.4 nM to 22 ± 6 nM (3.6-fold). The first binds more tightly here.

Going from B21 to B22, the Kd rises from 4.3 ± 0.7 nM to 7.1 ± 1 nM (1.7-fold).

First: B23
Second: B24
The Kd of the first is 2.9-fold lower: 5 ± 0.8 nM for the first, 14.5 ± 2.8 nM for the second. The first binds more tightly here.

B25 and B26 are within error of each other in Kd: 14.2 ± 2.2 nM for the first, 15 ± 4 nM for the second.

B27 and B28 are within 1.5-fold of each other in Kd: 8.7 ± 1 nM for the first, 11.6 ± 1.9 nM for the second.

Going from B29 to B30, the Kd falls from 8.7 ± 1.7 nM to 3.4 ± 0.6 nM (2.6-fold).

B31 and B32 are within error of each other in Kd: 10.5 ± 2.3 nM for the first, 8.8 ± 1.6 nM for the second.

B33 and B34 are within error of each other in Kd: 7.1 ± 1.6 nM for the first, 5.3 ± 0.6 nM for the second.

First: B35
Second: B36
The Kd of the first is 4.8-fold lower: 2.05 ± 0.35 nM for the first, 9.9 ± 0.8 nM for the second.

B37 and B38 are within 1.5-fold of each other in Kd: 12.5 ± 0.9 nM for the first, 9.4 ± 1 nM for the second.
